# Reference: patent US20240383964A1, “De Novo Designed alpha(5) beta(1) Integrin selective minibinders” (UNIVERSITY OF WASHINGTON, priority 2023, published 2024)
# B1: 00179_v4.1: highest affinity α5β1 minibinder, sequence SELIIHGRGDFPSSELERLRERFERLGIKVRVDHKVLTLIGISEEEAERLARELRKRGIWVEIRK (protein)
# chain: SELIIHGRGDFPSSELERLRERFERLGIKVRVDHKVLTLIGISEEEAERLARELRKRGIWVEIRK
# Tests used:
# integrin avb1 = integrin avb1 (Homo sapiens, UniProt P05556+P06756); assay: BLI cross specificity, integrin avb1; assay type: binding; settings: 500 nM integrin (FIG. 2B legend: 500 nM or 1000 nM), integrin assay buffer
# [1] = target: T1, active form of integrin α5β1 (Homo sapiens, UniProt P05556+P08648); assay: Colocalization of minibinder conjugated to GFP-tagged protein sheets with integrin staining; assay type: cell-based; settings: α5 and active β1 specific antibodies
# T1 construct: endogenous in cells
# Experimental: (§1) FIG. 2. (A) BLI binding affinity traces for minibinder or ^8RGD^10/GGG mutant against α5β1 in indicated buffers. Minibinder affinity to integrin α5β1 is dependent on metal ion presence and RGD motif. All affinity data was collected by Octet™ R8 and binding affinity was estimated by the Octet™ ForteBio software package. (B) Minibinder has no detectable affinity in presence of 500 nM or 1000 nM integrin αvβ1, αvβ3, αvβ6, αvβ8 and α8β1. (C) Cell surface titration of minibinder 4584_V5.3 and 00179_v4.1 against K562 cells wild type. […] Integrin α5 subunit and β1 subunit were stained with integrin α5 and active integrin β1 subunit specific antibody, respectively. (E) Quantification of (D). Quantification was counted as a percentage of mb-sheets that colocalized with staining of a5 and b1, a5 only, b1 only, or none; 30-35 sheets were counted in each biological repeat. […] Vascular stability was analyzed at 12-h timepoints. […] (G) Quantification of (F). The number of nodes, meshes, and tubes from images in (F) were quantified using an angiogenesis analyzer plug-in in ImageJ. Statistical significance of each were analyzed using One-way Anova Bonferroni's multiple comparison test. […] The wound area of T0 and T12 time points were quantified using imageJ and level of cell migration were calculated using this equation (AreaT0-T12)/AreaT0, all samples were normalized to PBS as fold change. […]
# HUVECs [2] = assay: Scratch-wound cell migration assay; assay type: cell-based, human; settings: 20 nM, 12 hours, compared to PBS control
# Experimental: FIG. 2. (A) BLI binding affinity traces for minibinder or ^8RGD^10/GGG mutant against α5β1 in indicated buffers. Minibinder affinity to integrin α5β1 is dependent on metal ion presence and RGD motif. All affinity data was collected by Octet™ R8 and binding affinity was estimated by the Octet™ ForteBio software package. (B) Minibinder has no detectable affinity in presence of 500 nM or 1000 nM integrin αvβ1, αvβ3, αvβ6, αvβ8 and α8β1. (C) Cell surface titration of minibinder 4584_V5.3 and 00179_v4.1 against K562 cells wild type. […] Integrin α5 subunit and β1 subunit were stained with integrin α5 and active integrin β1 subunit specific antibody, respectively. (E) Quantification of (D). Quantification was counted as a percentage of mb-sheets that colocalized with staining of a5 and b1, a5 only, b1 only, or none; 30-35 sheets were counted in each biological repeat. […] Minibinders were added to HUVEC cells at 0, 0.1, 1, 10, and 100 nM. Vascular stability was analyzed at 12-h timepoints. 20 images were taken in each well at random locations. The scale bar is 100 μm. (G) Quantification of (F). The number of nodes, meshes, and tubes from images in (F) were quantified using an angiogenesis analyzer plug-in in ImageJ. Statistical significance of each were analyzed using One-way Anova Bonferroni's multiple comparison test. […] The wound area of T0 and T12 time points were quantified using imageJ and level of cell migration were calculated using this equation (AreaT0-T12)/AreaT0, all samples were normalized to PBS as fold change.
# The inhibitory effect of 20 nM soluble 00179_v4.1 on cell migration was assessed using the scratch-wound assay. HUVECs were seeded with either 00179_v4.1 or PBS (used as a […] control) for 12 hours before capturing images for analysis.
# integrin a8b1 = integrin a8b1 (Homo sapiens, UniProt P05556+P53708); assay: BLI cross specificity, integrin a8b1; assay type: binding; settings: 500 nM integrin (FIG. 2B legend: 500 nM or 1000 nM), integrin assay buffer
# HUVECs [3] = assay: Tube formation assay; assay type: cell-based, human
# Experimental: as §1
# T1 sequence (P08648 42-894 limits assumed): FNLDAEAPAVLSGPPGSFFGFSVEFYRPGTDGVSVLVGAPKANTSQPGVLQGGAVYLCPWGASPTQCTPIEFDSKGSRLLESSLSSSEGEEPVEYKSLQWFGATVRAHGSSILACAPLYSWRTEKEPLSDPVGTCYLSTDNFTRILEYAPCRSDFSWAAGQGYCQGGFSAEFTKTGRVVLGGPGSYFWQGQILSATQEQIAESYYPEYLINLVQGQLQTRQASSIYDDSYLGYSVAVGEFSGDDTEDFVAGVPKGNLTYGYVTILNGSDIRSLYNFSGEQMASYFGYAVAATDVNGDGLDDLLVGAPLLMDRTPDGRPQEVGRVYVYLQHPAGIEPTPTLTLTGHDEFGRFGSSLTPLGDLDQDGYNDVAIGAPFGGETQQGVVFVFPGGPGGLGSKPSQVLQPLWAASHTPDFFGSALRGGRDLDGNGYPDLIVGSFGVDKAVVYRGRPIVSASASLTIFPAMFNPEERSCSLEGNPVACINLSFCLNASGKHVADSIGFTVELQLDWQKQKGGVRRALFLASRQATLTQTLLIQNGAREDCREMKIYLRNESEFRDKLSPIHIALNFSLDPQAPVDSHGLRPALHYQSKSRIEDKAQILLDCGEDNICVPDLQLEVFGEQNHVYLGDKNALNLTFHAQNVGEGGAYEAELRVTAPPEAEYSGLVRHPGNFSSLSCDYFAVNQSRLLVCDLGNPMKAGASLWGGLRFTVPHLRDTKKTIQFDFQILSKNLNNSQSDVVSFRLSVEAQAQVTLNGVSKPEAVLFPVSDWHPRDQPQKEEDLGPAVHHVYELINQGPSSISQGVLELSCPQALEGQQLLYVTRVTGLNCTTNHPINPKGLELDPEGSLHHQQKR
# T1 sequence (P08648 895-1049 partner limits assumed): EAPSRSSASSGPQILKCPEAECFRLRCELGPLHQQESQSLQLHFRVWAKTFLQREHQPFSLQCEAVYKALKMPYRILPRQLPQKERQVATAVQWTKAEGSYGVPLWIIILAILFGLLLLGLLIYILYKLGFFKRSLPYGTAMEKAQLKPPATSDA
# T1 sequence (P05556 21-798): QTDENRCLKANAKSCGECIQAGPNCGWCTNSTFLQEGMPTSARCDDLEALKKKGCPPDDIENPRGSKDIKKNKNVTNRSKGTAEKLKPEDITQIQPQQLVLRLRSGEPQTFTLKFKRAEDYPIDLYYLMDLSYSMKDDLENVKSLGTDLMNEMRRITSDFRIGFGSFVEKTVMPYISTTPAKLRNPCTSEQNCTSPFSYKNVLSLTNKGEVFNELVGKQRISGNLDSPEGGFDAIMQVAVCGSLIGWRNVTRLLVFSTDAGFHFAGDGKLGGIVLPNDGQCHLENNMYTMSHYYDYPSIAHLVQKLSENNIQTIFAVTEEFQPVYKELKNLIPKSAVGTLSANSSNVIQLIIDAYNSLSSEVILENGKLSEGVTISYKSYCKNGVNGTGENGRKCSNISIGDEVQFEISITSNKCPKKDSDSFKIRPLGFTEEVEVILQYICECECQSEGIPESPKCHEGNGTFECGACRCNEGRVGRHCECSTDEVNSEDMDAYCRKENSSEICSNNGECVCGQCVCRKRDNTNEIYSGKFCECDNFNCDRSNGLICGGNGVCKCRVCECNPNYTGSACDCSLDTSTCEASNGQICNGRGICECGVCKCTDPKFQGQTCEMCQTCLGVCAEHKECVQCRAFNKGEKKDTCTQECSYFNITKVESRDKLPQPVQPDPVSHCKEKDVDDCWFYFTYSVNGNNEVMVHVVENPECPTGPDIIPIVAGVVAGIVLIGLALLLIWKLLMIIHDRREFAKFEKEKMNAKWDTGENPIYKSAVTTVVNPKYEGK
# Sequence of integrin a8b1 (P53708 39-906 limits assumed): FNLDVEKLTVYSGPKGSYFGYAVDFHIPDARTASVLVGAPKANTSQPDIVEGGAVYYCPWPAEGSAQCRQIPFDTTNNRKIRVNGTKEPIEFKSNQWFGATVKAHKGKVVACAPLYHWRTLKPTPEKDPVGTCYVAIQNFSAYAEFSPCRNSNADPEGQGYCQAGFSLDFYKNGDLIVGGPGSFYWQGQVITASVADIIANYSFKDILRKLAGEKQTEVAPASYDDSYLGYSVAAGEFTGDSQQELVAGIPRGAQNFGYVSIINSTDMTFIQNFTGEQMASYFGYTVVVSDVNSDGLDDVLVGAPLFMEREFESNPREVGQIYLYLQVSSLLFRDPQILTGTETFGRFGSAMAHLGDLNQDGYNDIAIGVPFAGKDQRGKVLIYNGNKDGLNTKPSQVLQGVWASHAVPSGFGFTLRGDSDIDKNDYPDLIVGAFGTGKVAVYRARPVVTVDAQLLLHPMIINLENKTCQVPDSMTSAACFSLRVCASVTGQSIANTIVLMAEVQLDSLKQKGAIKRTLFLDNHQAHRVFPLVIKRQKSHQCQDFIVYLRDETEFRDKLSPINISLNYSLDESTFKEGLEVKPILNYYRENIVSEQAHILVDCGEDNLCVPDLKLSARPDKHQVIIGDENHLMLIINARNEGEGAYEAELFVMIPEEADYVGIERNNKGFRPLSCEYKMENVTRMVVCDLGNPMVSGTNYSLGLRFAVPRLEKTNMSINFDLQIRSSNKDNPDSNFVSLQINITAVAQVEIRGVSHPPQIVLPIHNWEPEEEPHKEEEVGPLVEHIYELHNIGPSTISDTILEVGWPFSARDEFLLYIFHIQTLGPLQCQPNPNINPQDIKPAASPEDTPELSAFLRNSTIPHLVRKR
# Sequence of integrin a8b1 (P53708 907-1011 partner limits assumed): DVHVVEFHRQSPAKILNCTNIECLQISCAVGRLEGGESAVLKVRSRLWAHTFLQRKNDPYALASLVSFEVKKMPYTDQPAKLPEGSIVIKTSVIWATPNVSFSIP
# Sequence of integrin a8b1 (P05556 21-728 limits assumed): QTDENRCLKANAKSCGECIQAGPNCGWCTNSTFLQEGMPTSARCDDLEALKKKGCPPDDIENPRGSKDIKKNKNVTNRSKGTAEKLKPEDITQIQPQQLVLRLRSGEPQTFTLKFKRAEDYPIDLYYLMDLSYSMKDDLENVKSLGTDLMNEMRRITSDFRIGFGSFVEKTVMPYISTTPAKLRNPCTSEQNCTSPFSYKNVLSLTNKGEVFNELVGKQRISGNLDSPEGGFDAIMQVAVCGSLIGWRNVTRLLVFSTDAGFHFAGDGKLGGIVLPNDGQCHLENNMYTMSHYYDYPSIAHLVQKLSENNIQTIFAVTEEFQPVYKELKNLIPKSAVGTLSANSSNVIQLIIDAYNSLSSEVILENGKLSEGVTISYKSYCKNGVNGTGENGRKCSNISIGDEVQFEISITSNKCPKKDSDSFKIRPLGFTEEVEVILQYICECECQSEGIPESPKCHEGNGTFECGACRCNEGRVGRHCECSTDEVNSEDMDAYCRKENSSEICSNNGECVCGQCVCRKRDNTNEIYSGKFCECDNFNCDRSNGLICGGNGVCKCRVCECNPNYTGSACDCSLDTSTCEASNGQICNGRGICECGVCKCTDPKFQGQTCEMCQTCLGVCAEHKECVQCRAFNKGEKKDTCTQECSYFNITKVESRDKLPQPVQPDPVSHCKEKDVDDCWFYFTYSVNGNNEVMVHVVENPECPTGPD
# Sequence of integrin avb1 (P06756 31-889 limits assumed): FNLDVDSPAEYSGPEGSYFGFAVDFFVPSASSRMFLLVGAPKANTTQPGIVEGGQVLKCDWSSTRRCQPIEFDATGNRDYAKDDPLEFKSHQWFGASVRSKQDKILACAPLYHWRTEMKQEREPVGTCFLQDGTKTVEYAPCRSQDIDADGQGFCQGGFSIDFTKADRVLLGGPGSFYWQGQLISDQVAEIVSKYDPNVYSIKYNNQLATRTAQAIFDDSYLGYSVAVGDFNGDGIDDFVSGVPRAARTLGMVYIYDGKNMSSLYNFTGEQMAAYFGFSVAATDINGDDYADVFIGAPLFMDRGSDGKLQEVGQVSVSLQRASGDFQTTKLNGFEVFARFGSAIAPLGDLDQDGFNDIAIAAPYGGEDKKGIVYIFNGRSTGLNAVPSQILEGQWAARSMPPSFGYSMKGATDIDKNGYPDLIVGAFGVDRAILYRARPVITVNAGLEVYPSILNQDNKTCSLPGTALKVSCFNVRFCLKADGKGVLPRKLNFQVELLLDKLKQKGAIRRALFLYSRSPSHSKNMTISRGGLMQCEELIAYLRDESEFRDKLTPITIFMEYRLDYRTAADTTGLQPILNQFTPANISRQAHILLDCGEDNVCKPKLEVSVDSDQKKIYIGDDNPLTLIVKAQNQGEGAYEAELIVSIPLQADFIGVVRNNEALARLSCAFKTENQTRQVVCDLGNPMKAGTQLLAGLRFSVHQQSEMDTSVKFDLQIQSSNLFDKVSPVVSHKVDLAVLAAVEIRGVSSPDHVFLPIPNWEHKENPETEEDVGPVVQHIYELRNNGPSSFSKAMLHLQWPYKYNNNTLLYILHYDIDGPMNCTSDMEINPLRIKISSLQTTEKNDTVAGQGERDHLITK
# Sequence of integrin avb1 (P06756 891-992 partner limits assumed): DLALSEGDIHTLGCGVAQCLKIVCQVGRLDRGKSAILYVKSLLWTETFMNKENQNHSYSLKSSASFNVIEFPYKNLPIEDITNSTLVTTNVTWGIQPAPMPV
# Sequence of integrin avb1 (P05556 21-728 limits assumed): as the sequence (P05556 21-728 limits assumed) above
molecule,measurement,setting,value
B1,binding to integrin avb1,integrin avb1,No detectable binding
same,localization of minibinder sheet with integrin α5 and active β1 staining,[1],colocalized with active form of integrin α5β1
same,cell migration,HUVECs [2],significant reduction in cell migration
same,binding to integrin a8b1,integrin a8b1,No detectable binding
same,vascular stability,"HUVECs [3]; HUVEC cells, 0, 0.1, 1, 10 and 100 nM, 12-h timepoint",decrease in vascular stability
same,tube formation,"HUVECs [3]; HUVECs, 10 nM and 100 nM, 12 hours, compared to PBS control",significantly attenuated
